Results as given in patent publication US20230000956A1, “COMBINATION THERAPY WITH GLUCARPIDASE WITH METHOTREXATE/RITUXIMAB TO TREAT CNS LYMPHOMA” (MEMORIAL SLOAN KETTERING CANCER CENTER, priority 2019, published 2023).
“Also recorded” adds a separate entry of the source. Where two headings read alike, the source gives them in different places.

Tests used:
[1] = Serum MTX level after outpatient HD-MTX with glucarpidase (Example 3); assay type: in vivo; details: human, intravenous, outpatient MTX 3.5 g/m^2, glucarpidase 2000 U next day, 7 treatments, 3 patients, all cases, read-out: serum MTX levels at 48 hours
[2] = cited from earlier work
[3] = CSF MTX and glucarpidase (Example 2)
Procedure: Methods. In a phase I dose-finding study of planned-use glucarpidase following HD-MTX, patients were treated with either MTX at 3 g/m^2, 6 g/m^2, or 8 g/m^2. Glucarpidase was dose-reduced to 1000 U or 2000 U and given 24 hours after MTX. […] MTX levels following glucarpidase were determined via mass spectrometry as immunoassay fails to differentiate MTX from byproducts.

[4] = Serum MTX levels before and after glucarpidase, mass spectrometry (Example 1)
Procedure: (§2) Patients were enrolled into two cohorts with Cohort A receiving MTX 3 g/m^2 and Cohort B receiving MTX 6 g/m^2. Glucarpidase 2000 U or 1000 U was administered 24 hours following the initiation of MTX infusion. […] In the present Example, rituximab was administered on Day 1, MTX on Day 2, glucarpidase Day 3, followed by an 11-day non-treatment period before the start of the next cycle.

[5] = cited from earlier work; remark: listed apart in the source
[6] = CSF MTX concentrations following glucarpidase (Example 1); assay type: in vivo, human; details: evaluated in two patients
Procedure: (§1) Cerebrospinal fluid (CSF) was collected throughout treatment. Serum was collected for analysis of anti-glucarpidase antibodies. […] Rituximab was always dosed at 500 mg/m^2.

CNSL = details: cited from earlier work
[7] = cited from earlier work; remark: listed apart in the source
[8] = in vivo
Procedure: as §2

[9] = assay type: in vivo, human
[10] = in vivo; cited from earlier work
[11] = test system: anti-glucarpidase antibodies; details: in vivo; cited from earlier work
[12] = test system: anti-glucarpidase antibodies; assay: Anti-glucarpidase antibodies in serum (Example 1); assay type: in vivo, human; details: two patients, one result per patient
Procedure: as §1

[13] = parameters: species or system human; details: in vivo
[14] = Adverse events (Example 1); parameters: species or system human; details: in vivo
Description: A cycle is typically 14±7 days.

[15] = biological target: T1, glucarpidase enzymatic activity (Pseudomonas sp., UniProt P06621); details: serum from four of 22 patients with an antibody response; cited from earlier work
T1 sequence (P06621 23-415): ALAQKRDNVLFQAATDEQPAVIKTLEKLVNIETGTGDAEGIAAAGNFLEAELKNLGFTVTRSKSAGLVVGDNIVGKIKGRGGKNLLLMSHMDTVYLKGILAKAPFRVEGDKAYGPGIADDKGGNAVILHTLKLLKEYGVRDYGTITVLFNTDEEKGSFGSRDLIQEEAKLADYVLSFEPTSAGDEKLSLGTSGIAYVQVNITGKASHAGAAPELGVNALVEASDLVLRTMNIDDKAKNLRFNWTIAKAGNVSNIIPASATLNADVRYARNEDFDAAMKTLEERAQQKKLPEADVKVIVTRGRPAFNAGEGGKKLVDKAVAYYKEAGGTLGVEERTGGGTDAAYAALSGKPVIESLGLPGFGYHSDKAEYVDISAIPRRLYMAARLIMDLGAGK

[16] = test system: anti-glucarpidase antibodies; parameters: species or system human; details: in vivo
[17] = setting of MTX-related acute kidney injury
[18] = around 24 hours after glucarpidase, 8 doses
[19] = typically around 24 hours after glucarpidase

Molecule: CN(Cc1cnc2nc(N)nc(N)c2n1)c1ccc(C(=O)N[C@@H](CCC(=O)O)C(=O)O)cc1 [MTX, Methotrexate]
- concentration at 48 h [1]: < 100 nM
- adults sustaining acute kidney injury ([2]; HD-MTX): 2-12%
- incidence of systemic toxicities (hepatic injury, pneumonitis, bone marrow suppression) ([2]; in vivo): < 10%
- patients requiring MTX dose reduction [2, 17]: 14-44%
- patients with premature cessation of therapy [2, 17]: 5-8%
- MTX concentrations in CSF (potentially cytotoxic) ([3]; 25 hours following MTX administration (1 hour after glucarpidase)): 10^−6 M
- CSF MTX concentrations following glucarpidase (conclusion) ([3]; in vivo): remain at cytotoxic levels
- median elevation of MTX (transient increase) [4, 18]: 290 nmol/L
- range of elevation of MTX (transient increase) [4, 18]: 119 to 516 nmol/L
- serum MTX levels within 15 minutes of glucarpidase ([4]; in 23/24 doses): less than 100 nmol/L
- doses followed by transient increase in MTX levels above 100 nmol/L [4, 19]: 8 of 24
- share of doses followed by transient increase in MTX levels above 100 nmol/L [4, 19]: 33%
- blood brain barrier penetration ([5]; high doses (>1.5 g/m^2) as a rapid infusion): penetrates the blood brain barrier
- share cleared via renal excretion ([5]; in vivo): 70-90%
- CSF methotrexate concentrations following glucarpidase administration [6]: remained therapeutic
- overall response rates (ORR) (CNSL; PCNSL, upfront setting): up to 74%
- survival benefit (CNSL; retrospective analysis of 357 patients, regimens with doses 3 g/m^2): statistically significant survival benefit

B1: glucarpidase: recombinant bacterial enzyme that cleaves serum MTX to inactive metabolites (SEQ ID NO: 1) (protein)
chain: T1 sequence (P06621 23-415)
- glucarpidase in the CSF ([3]; in vivo): not detected
- safety and efficacy at approved dose ([7]; 50 units/kg, patients with delayed MTX elimination from renal impairment): safe and efficacious
- patients reporting nausea, vomiting, hypotension, paresthesias, flushing, and headache ([7]; in vivo): < 3%
- decrease in serum MTX levels, remaining dose [8]: 93%
- doses with at least a 95% reduction in serum MTX levels within 15 minutes ([4]; glucarpidase 2000 U or 1000 U): 23/24
- share of doses with at least a 95% reduction in serum MTX levels within 15 minutes ([4]; glucarpidase 2000 U or 1000 U): 96%
- reduction in serum MTX levels within 15 minutes of administration ([4]; glucarpidase 2000 U or 1000 U 24 h after MTX 3 or 6 g/m^2, in 23/24 doses): ≥ 95%
- effect on serum MTX levels (summary) ([4]; low-dose glucarpidase 24 hours after MTX): rapid reduction in serum MTX levels
- reduction in serum MTX levels within 15 minutes ([9]; glucarpidase 1000 U (14 treatments) or 2000 U (36 treatments), following 49/50 doses): ≥ 95%
- doses with at least a 95% reduction in serum MTX levels within 15 minutes ([9]; glucarpidase 1000 U or 2000 U): 49/50
- decrease in serum MTX levels, remaining dose ([9]; in vivo): 93%
- efficacy after repeated doses and antibody formation ([9]; low-dose glucarpidase): remains effective even after repeated doses and despite the formation of anti-glucarpidase antibodies
- reduction of MTX levels (conclusion) ([9]; low-dose glucarpidase): > 95%
- half-life [10]: 6 to 9 h
- volume of distribution [10]: 3.6 L
- antibody formation post glucarpidase [11]: 37-43%
- patients developing antibodies [11]: roughly 17%
- anti-glucarpidase antibody titer levels [12]: detectable anti-glucarpidase antibodies; also recorded: did not develop any anti-glucarpidase antibodies
- grade 3 events [13]: no grade 3 events
- grade 4 events [13]: only one grade 4 anaphylactic reaction
- adverse events associated with glucarpidase administration [14]: no adverse events associated with glucarpidase administration
- inhibition of glucarpidase enzymatic activity in vitro by patient serum [15]: 28-58%
- patients with anti-glucarpidase antibodies detected [16]: 6 of 8
